Experimental findings from article PMC11343034, “CDCA7 is an evolutionarily conserved hemimethylated DNA sensor in eukaryotes” are described below.

One data set has as its target T1, CDCA7L 322-454 (Homo sapiens, UniProt Q96GN5 322-454).
T1 sequence: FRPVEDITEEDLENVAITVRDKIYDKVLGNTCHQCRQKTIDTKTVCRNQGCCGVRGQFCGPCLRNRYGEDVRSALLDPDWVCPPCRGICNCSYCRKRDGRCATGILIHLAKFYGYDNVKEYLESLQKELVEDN
Description: pull-down; egg extract; Oligo EMSA: 20 mM Tris-HCl pH 7.5, 150 mM NaCl, 1 mM DTT, 0.05% NP-40, 10% glycerol, 4 C, 0.5 uM DNA; nucleosome EMSA: same with 50 mM NaCl, 0.1 uM nucleosome. As to conditions: protein: ivt; tags: 35S-Met; label: 5' biotin on strand 2; blunt. For orientation: In EMSA bound probe runs differently from free probe, usually more slowly.

In the next data set the target is T2, C. gigas CDCA7 homolog (Crassostrea gigas, UniProt A0A8W8IWK5 1-264).
T2 sequence: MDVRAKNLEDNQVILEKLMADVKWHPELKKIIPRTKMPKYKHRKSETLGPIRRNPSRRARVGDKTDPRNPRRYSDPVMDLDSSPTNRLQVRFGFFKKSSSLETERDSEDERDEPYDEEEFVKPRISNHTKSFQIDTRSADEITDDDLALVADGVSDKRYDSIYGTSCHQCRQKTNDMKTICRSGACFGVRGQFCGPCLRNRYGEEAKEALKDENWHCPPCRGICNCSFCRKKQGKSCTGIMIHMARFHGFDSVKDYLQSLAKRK
Description: pull-down; boiled extract; Oligo EMSA: 20 mM Tris-HCl pH 7.5, 150 mM NaCl, 1 mM DTT, 0.05% NP-40, 10% glycerol, 4 C, 0.5 uM DNA; nucleosome EMSA: same with 50 mM NaCl, 0.1 uM nucleosome. The note with it: protein: ivt; tags: 35S-Met; label: 5' biotin on strand 2; blunt.

The target of data set [1] is T3, A. thaliana CDCA7 homolog (Arabidopsis thaliana, UniProt Q0WPT6 1-417).
T3 sequence: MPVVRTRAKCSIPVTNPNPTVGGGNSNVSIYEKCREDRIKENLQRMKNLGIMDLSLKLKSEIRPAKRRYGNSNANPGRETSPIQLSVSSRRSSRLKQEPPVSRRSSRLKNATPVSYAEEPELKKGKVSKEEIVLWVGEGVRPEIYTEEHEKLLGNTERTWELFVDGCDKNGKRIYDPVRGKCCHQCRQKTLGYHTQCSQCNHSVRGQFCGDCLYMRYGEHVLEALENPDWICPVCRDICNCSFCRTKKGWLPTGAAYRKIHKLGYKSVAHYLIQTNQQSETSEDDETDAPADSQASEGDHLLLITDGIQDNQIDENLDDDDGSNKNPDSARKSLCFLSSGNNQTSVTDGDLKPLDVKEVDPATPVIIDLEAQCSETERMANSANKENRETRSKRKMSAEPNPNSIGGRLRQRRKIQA
Described as above. The note with it: protein: ivt; tags: 35S-Met; label: 5' biotin on strand 2; blunt.

Data set [2] concerns the target T4, N. vectensis CDCA7 homolog (Nematostella vectensis, UniProt A7SQU1 1-157).
T4 sequence: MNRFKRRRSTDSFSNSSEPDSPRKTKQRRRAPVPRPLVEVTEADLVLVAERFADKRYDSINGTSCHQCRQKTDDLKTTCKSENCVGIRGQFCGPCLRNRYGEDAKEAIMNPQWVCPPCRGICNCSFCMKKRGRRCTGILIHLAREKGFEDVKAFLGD
The data set is described as above. As to conditions: protein: ivt; tags: 35S-Met; label: 5' biotin on strand 2; blunt.

The target in the next data set is T5, hCDCA7 264-371 C339S (Homo sapiens, UniProt Q9BWT1 264-371, C339S).
T5 sequence: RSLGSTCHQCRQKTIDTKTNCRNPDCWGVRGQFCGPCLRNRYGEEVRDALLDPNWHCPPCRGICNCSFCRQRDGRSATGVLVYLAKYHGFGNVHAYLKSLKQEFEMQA
Put plainly: EMSA; free DNA preferred over nucleosome; Oligo EMSA: 20 mM Tris-HCl pH 7.5, 150 mM NaCl, 1 mM DTT, 0.05% NP-40, 10% glycerol, 4 C, 0.5 uM DNA; nucleosome EMSA: same with 50 mM NaCl, 0.1 uM nucleosome. As to conditions: protein: recombinant; tags: GST-SUMO removed; blunt.

B1: 54-bp hemi-Me (F) (dsDNA)
DNA 1: GCGGGTGATGGACCCTATACGCGGCCGCCCTGGAGAATCCCGGTGCCGCGGCCG
DNA 2: CGGCCGCGGCACCGGGATTCTCCAGGGCGGCCGCGTATAGGGTCCATCACCCGC
modifications: 5mC at 41,47,49,53 of strand 1
For the molecule B1, the binding result (in the data set with CDCA7L 322-454; with C. gigas CDCA7 homolog; in data set [1]; in data set [2]) was “binds” each time.

B2: -62W free DNA (dsDNA)
DNA 1: ATCAGAATCCCGGTGCCGAGGCCGCTCAATTGGTCGTAGACAGCTCTAGCACCGCTTAAACGCACGTACGCGCTGTCCCCCGCGTTTTAACCGCCAAGGGGATTACTCCCTAGTCTCCAGGCACGTGTCAGATATATACATCGAT
DNA 2: ATCGATGTATATATCTGACACGTGCCTGGAGACTAGGGAGTAATCCCCTTGGCGGTTAAAACGCGGGGGACAGCGCGTACGTGCGTTTAAGCGGTGCTAGAGCTGTCTACGACCAATTGAGCGGCCTCGGCACCGGGATTCTGAT
modifications: 5mC at 11 of strand 1
Consider B2, for which, in the data set with hCDCA7 264-371 C339S, the binding result was “binds”.

B3: -64C free DNA (dsDNA)
DNA 1: ATCAGAATCCCGGTGCCGAGGCCGCTCAATTGGTCGTAGACAGCTCTAGCACCGCTTAAACGCACGTACGCGCTGTCCCCCGCGTTTTAACCGCCAAGGGGATTACTCCCTAGTCTCCAGGCACGTGTCAGATATCGACATCGAT
DNA 2: ATCGATGTCGATATCTGACACGTGCCTGGAGACTAGGGAGTAATCCCCTTGGCGGTTAAAACGCGGGGGACAGCGCGTACGTGCGTTTAAGCGGTGCTAGAGCTGTCTACGACCAATTGAGCGGCCTCGGCACCGGGATTCTGAT
modifications: 5mC at 9 of strand 2
Consider B3, for which the binding result with hCDCA7 264-371 C339S was “binds”.
